Measured values published in US20260207732A1.

Legend:
[1] = target: Mut10 (Influenza A virus A/Brisbane/02/2018 (H1N1)); test: BLI (Octet) after 7D37C and trypsin; HA on Ni-NTA tips
[2] = target: Mut17 (Influenza A virus A/Brisbane/02/2018 (H1N1)); test: as above
[3] = target: Mut18 (Influenza A virus A/Brisbane/02/2018 (H1N1)); test: as above
[4] = target: Mut23 (Influenza A virus A/Brisbane/02/2018 (H1N1)); test: as above
[5] = target: Mut24 (Influenza A virus A/Brisbane/02/2018 (H1N1)); test: as above
[6] = target: Mut27 (Influenza A virus A/Brisbane/02/2018 (H1N1)); test: as above
[7] = target: Mut10 (Influenza A virus A/Brisbane/02/2018 (H1N1)); test: BLI (Octet), HA-foldon-His on Ni-NTA tips, IgG in solution
[8] = target: Mut17 (Influenza A virus A/Brisbane/02/2018 (H1N1)); test: as above
[9] = target: Mut18 (Influenza A virus A/Brisbane/02/2018 (H1N1)); test: as above
[10] = target: Mut23 (Influenza A virus A/Brisbane/02/2018 (H1N1)); test: as above
[11] = target: Mut24 (Influenza A virus A/Brisbane/02/2018 (H1N1)); test: as above
[12] = target: Mut27 (Influenza A virus A/Brisbane/02/2018 (H1N1)); test: as above
[13] = target: Mut24 (Influenza A virus A/Brisbane/02/2018 (H1N1)); test: BLI (Octet) after 7D37C and trypsin; footnote to the marked cell

Row | Substance | Octet response (nm) [1] | Octet response (nm) [2] | Octet response (nm) [3] | Octet response (nm) [4] | Octet response (nm) [5] | Octet response (nm) [6] | Octet response (nm) [7] | Octet response (nm) [8] | Octet response (nm) [9] | Octet response (nm) [10] | Octet response (nm) [11] | Octet response (nm) [12] | fold reduction of affinity (KD) against control [13]
1 | CR9114 monoclonal antibody (IgG) | 0.729 nm | 0.754 nm | 0.464 nm | 0.808 nm | 0.0617 nm | 0.314 nm | 0.805 nm | 0.814 nm | 0.731 nm | 0.901 nm | 0.872 nm | 0.337 nm | 100 fold
2 | FI6v3 monoclonal antibody (IgG) | 0.737 nm | 0.748 nm | 0.484 nm | 0.745 nm | 0.406 nm | 0.313 nm | 0.968 nm | 0.878 nm | 0.811 nm | 0.984 nm | 0.93 nm | 0.398 nm | 
